Experimental data reported in patent publication US6383484.
Blank lines part the entries; values can stand above or below the molecule they belong to.

Legend:
[1] = molecular target: VEGF-DΔNΔC (human VEGF-D residues 93 to 201, FLAG-tagged at the N-terminus) (human) (UniProt O43915); assay: SPR (BIAcore 3000), antibody immobilized, human VEGF-DΔNΔC flowed at 41-689 nM, 1:1 Langmuir model
[2] = molecular target: VEGF-DΔNΔC (human VEGF-D residues 93 to 201, FLAG-tagged at the N-terminus) (human) (UniProt O43915); assay: cell-based or functional assay
[3] = molecular target: T1, chimeric protein consisting of the extracellular domain of human VEGFR-1 and the Fc portion of human IgG (human, UniProt P17948 27-758); assay: plate receptor-binding assay, VEGFR-1/Ig coated, detection with biotinylated M2
T1 construct: extracellular domain; also called VEGFR-1/Ig; not shown: Fc portion of human IgG
T1 sequence (P17948 27-758, change not shown): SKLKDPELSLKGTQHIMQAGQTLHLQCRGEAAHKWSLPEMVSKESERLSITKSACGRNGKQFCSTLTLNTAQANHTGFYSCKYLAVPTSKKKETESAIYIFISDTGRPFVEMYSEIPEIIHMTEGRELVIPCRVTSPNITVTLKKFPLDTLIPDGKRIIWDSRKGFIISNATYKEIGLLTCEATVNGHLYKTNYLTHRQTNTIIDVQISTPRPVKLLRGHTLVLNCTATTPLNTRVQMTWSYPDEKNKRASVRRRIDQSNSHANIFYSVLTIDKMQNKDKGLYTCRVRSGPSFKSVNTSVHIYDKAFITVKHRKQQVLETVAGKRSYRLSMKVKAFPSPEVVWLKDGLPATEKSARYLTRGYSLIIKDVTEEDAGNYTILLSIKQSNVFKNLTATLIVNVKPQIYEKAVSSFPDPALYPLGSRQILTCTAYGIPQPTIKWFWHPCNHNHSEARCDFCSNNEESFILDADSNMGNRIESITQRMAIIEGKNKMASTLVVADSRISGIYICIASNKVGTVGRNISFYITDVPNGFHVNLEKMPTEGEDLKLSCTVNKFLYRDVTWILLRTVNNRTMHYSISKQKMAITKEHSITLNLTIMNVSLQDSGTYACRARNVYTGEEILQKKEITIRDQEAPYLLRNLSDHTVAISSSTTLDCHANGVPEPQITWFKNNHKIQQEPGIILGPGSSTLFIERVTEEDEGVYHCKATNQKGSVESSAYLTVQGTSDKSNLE

Kd [1]: 57.1 nM
koff [1]: 0.00445 s⁻¹
kon [1]: 78000 M⁻¹ s⁻¹
response of Ba/F3-NYK-EpoR cells to VEGF-D?N?C (3H-thymidine incorporation) [2]: 80 µg/mL
Molecule: monoclonal antibody 4E10

B1: VEGF-DΔNΔC (human VEGF-D residues 93 to 201, FLAG-tagged at the N-terminus) (ligand)
chain: FYDIETLKVIDEEWQRTQCSPRETCVEVASELGKSTNTFFKPPCVNVFRCGGCCNEESLICMNTSTSYISKQLFEISVPLTSVPELVPVKVANHTGCKCLPTAPRHPYS
notes: also called VEGF-D?N?C; human VEGF-D?N?C; not shown: FLAG octapeptide (Sigma) at the N-terminus; any vector-de
binding result [3]: no binding (tested: 7.3 µg/ml VEGF-DΔNΔC)
